This is an account of results in article PMC3798461.

In data set [1] the target is mLANA_(140–314) (murine gammaherpesvirus 68 (MHV-68)). Put plainly: SEC; purified mLANA DBD truncations analysed by size exclusion chromatography; oligomeric state from the elution volume.
Data set [2] concerns mLANA124-314 WT (Murine gammaherpesvirus 68 (MHV-68, MuHV-4)). The experiment in a line: ITC. The conditions noted are these: EMSA: 20 mM Tris-HCl pH 7.5, 50 mM KCl, 10 mM MgCl2, 1 mM EDTA, 20 ug/mL poly(dI-dC), 0.1 mM DTT, 10% glycerol, RT; ITC: 25 mM Na/K phosphate pH 7.0, 150 mM ….
Data set [3] concerns the target mLANA_(140–272), C-terminal DNA-binding domain of murine gammaherpesvirus 68 latency-associated nuclear antigen (murine gammaherpesvirus 68 (MHV-68)). The experiment in a line: SEC; purified mLANA DBD truncations analysed by size exclusion chromatography; oligomeric state from the elution volume.
Data set [4] deals with mLANA124-272 WT (Murine gammaherpesvirus 68 (MHV-68, MuHV-4)). Put plainly: SPR. The following applies: 5' biotin with TTTTT spacer; EMSA: 20 mM Tris-HCl pH 7.5, 50 mM KCl, 10 mM MgCl2, 1 mM EDTA, 20 ug/mL poly(dI-dC), 0.1 mM DTT, 10% glycerol, RT; ITC: 25 mM Na/K phosphate pH 7.0, 150 mM ….

Substance mLANA_(140–314) (domain or fragment) returned a stoichiometry N in data set [1] of 4. The substance mLBS1 for ITC and SEC (no spacer) returned a Kd in data set [2] of 0.066 µM. As for “mLANA_(140–272), C-terminal DNA-binding domain of murine gammaherpesvirus 68 latency-associated nuclear antigen (domain or fragment)”, the stoichiometry N in data set [3] came out at 2. mLBS1 SPR ligand (biotin-TTTTT-mLBS1) registered a Kd in data set [4] of 0.169 µM.
